This passage reports Km, Vmax and Vmax/Km results from publication PMC11202169, “A Novel Fluorescence-Based Microplate Assay for High-Throughput Screening of hSULT1As Inhibitors” (Biosensors, 2024).

Common to all, as to assay type: biochemical, human
Common to all, as to conditions: other: HN-241 4-O-sulfation

Substrate in series [1]: CCN1C(=O)c2cccc3c(O)ccc(c23)C1=O
Briefly: Enzymatic kinetics of hSULT1A1-catalyzed HN-241 4-O-sulfation. The protocol: (§1) The enzymatic kinetic parameters of hSULT1As-catalyzed HN-241 4-O-sulfation were measured by incubating increasing concentrations of HN-241 with each of the hSULT1As for a certain period. The fitting equations included Equation (2), the Michaelis–Menten equation, and Equation (3) for enzyme kinetics with substrate inhibition. Related kinetic parameters were fitted by GraphPad Prism 8.0 (San Diego, CA, USA). (2) V=Vmax × [S]/Km+[S] (3) V=Vmax × [S]/Km+[S](1+[S]/Ki)
(§2) [S] refers to the concentration of HN-241, Vmax is the maximum rate of hSULT1As-catalyzed HN-241 4-O-sulfation, Km is the substrate concentration at the half Vmax, and Ki represents the dissociation constant for the binding of the substrate to the inhibitory site.

Substrate in series [2]: CCN1C(=O)c2cccc3c(O)ccc(c23)C1=O
Briefly: Enzymatic kinetics of hSULT1A3-catalyzed HN-241 4-O-sulfation. The protocol: as §1, §2

Substrate in series [3]: CCN1C(=O)c2cccc3c(O)ccc(c23)C1=O
Briefly: Enzymatic kinetics of hSULT1A2-catalyzed HN-241 4-O-sulfation. The protocol: as §1, §2

B1: hSULT1A1 (Homo sapiens) (protein)
chain: MELIQDTSRPPLEYVKGVPLIKYFAEALGPLQSFQARPDDLLISTYPKSGTTWVSQILDMIYQGGDLEKCHRAPIFMRVPFLEFKAPGIPSGMETLKDTPAPRLLKTHLPLALLPQTLLDQKVKVVYVARNAKDVAVSYYHFYHMAKVHPEPGTWDSFLEKFMVGEVSYGSWYQHVQEWWELSRTHPVLYLFYEDMKENPKREIQKILEFVGRSLPEETVDFVVQHTSFKEMKKNPMTNYTTVPQEFMDHSISPFMRKGMAGDWKTTFTVAQNERFDADYAEKMAGCSLSFRSEL
notes: 6-histidine tag (N); TEV site (N); made in house; host or cells: Escherichia coli BL21 (DE3), pET29a(+)
Take B1: in series [1], the Michaelis constant (Km) – broadly, the substrate concentration at which the rate is half of its maximum – is 0.91 ± 0.24 µM; the Vmax (in general, the top rate of the reaction or transport when substrate is in excess) was determined as 0.0221 ± 0.00443 µmol/min/mg; the Vmax/Km turned out to be 24300 µL/min/mg.

B2: hSULT1A3 (Homo sapiens) (protein)
chain: MELIQDTSRPPLEYVKGVPLIKYFAEALGPLQSFQARPDDLLINTYPKSGTTWVSQILDMIYQGGDLEKCNRAPIYVRVPFLEVNDPGEPSGLETLKDTPPPRLIKSHLPLALLPQTLLDQKVKVVYVARNPKDVAVSYYHFHRMEKAHPEPGTWDSFLEKFMAGEVSYGSWYQHVQEWWELSRTHPVLYLFYEDMKENPKREIQKILEFVGRSLPEETMDFMVQHTSFKEMKKNPMTNYTTVPQELMDHSISPFMRKGMAGDWKTTFTVAQNERFDADYAEKMAGCSLSFRSEL
notes: as for B1
As for B2, in series [2], the Michaelis constant (Km) came out at 12.90 ± 1.16 µM, the Vmax was 0.00881 µmol/min/mg and the Vmax/Km was found to be 683 µL/min/mg.

B3: hSULT1A2 (Homo sapiens) (protein)
chain: MELIQDISRPPLEYVKGVPLIKYFAEALGPLQSFQARPDDLLISTYPKSGTTWVSQILDMIYQGGDLEKCHRAPIFMRVPFLEFKVPGIPSGMETLKNTPAPRLLKTHLPLALLPQTLLDQKVKVVYVARNAKDVAVSYYHFYHMAKVYPHPGTWESFLEKFMAGEVSYGSWYQHVQEWWELSRTHPVLYLFYEDMKENPKREIQKILEFVGRSLPEETVDLMVEHTSFKEMKKNPMTNYTTVRREFMDHSISPFMRKGMAGDWKTTFTVAQNERFDADYAKKMAGCSLSFRSEL
notes: as for B1
Turning to B3, in series [3], the Km is 4.47 ± 0.20 µM, the Vmax was determined as 0.00644 µmol/min/mg and the Vmax/Km worked out at 1440 µL/min/mg.
